In the supplement of paper PMC7125110:
± gives the standard error. Variants at the floor of the assay were thinned out.

B1: glmS ribozyme (parent)
chain: AUAAAAGCGCCAGAACUACAGAAAUGUAGUUGACGAGGAGGAGGUUUAUCGAAUUUUCGGCGGAUGCCUCCAAA

Variants of: B1
Assay: self-cleavage kobs at 2500 uM GlcN6P; higher = faster cleavage; RNA array
Conditions: with glucosamine-6-phosphate
Outline: (§1)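 kobs was derived by fitting per-tile medians to one- or two-exponential decays after normalising signals to baseline and to non-cleaving reference variants. Those signals came from barcoded ribozyme variants transcribed in situ by E. coli RNA polymerase on sequenced MiSeq chips, followed through a hybridised Cy3 probe at 37 °C and imaged over ~14 h. Glucosamine-6-phosphate (40 μM to 10 mM) in HEPES/KCl/Mg(OAc)2 buffer was flowed in. Weighted Michaelis–Menten fits across concentrations then gave kcat and KM.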

Variant	self-cleavage kobs at 2500 uM GlcN6P [s⁻¹]
A33U A52C G63C	< 1e-05
C50U C61U U69A	0.000118 ± 3.5e-05
A6U G13A G35C A52C	< 1e-05
G13U G38C A53U	< 1e-05
G13A U30G U56A	7.43e-05 ± 2.5e-05
G38C A48U U57C C67U	< 1e-05
G7U G9U U47A	< 1e-05
C8G A64U C70U	< 1e-05
U30G A64G C67G	6.44e-05 ± 3e-05
G26U G32U U55G	0.000168 ± 8.2e-05
A6C A15U G43A C71U	< 1e-05
A36U G59C G63U	< 1e-05
A12G G40A G60A U69G	< 1e-05
A39G A42U U55G U57C G62A	< 1e-05
A6C G9C G35A A52G C68U	< 1e-05
G37U G40A G63A	< 1e-05
G29C A33U G38C U56A C71U	< 1e-05
U30A A39G U69G	5.54e-05 ± 2.2e-05
G37U A42U U54G U57A C67A	< 1e-05
G13C G37U C58U G60A	< 1e-05

Variant	self-cleavage kobs at 2500 uM GlcN6P [s⁻¹]
G38C C58U G66A	< 1e-05
A6C A39G G51C	< 1e-05
C8G G29C G38C U57C	< 1e-05
A12G C34A U45A	< 1e-05
A14G C58U G66U C67G	7.46e-05 ± 3.2e-05
A6U A15U A36C	< 1e-05
A12U G32C G40U U45C	< 1e-05
U30A G32C C34G U55A	< 1e-05
G44C A48G A53C G59U	< 1e-05
A15C U69G	7.29e-05 ± 2.2e-05
A42U A52U U55C C70G	< 1e-05
A15U U56G C70U	0.000554 ± 0.00014
C50U G60A G63A	< 1e-05
A1U G41U C70G C71U	0.000249 ± 4e-05
U31G G38C G44A	< 1e-05
G9A C10U U30A G44A	< 1e-05
A6C C16G U45G G59U	< 1e-05
A6U G32C C34G U55G U56A	< 1e-05
G44U A52C U56C G63A C67U	< 1e-05
A15G G41U U56G C71G	8.85e-05 ± 2e-05

Variant	self-cleavage kobs at 2500 uM GlcN6P [s⁻¹]
G32C G38A U47A C58U A64C U69G	0.000153 ± 4.8e-05
A6G A48G C71A	< 1e-05
C10G G13C A14G U31C U47A	< 1e-05
G43U U45C C71G	< 1e-05
C11U A12C G32U	< 1e-05
C11G G60C G63C	< 1e-05
G29U U56A C68U	0.000413 ± 6.5e-05
C8U G32U C34U C58G	< 1e-05
G40A G59C G63A C68A	< 1e-05
G40A G41C A42C U49C	< 1e-05
C34A G51C U54G	< 1e-05
A42U G66A	7.23e-05 ± 2.1e-05
U31G G32A A33C G41A A48G	< 1e-05
G13U G38U U54G G62A	< 1e-05
G13U A36C A42G C58U	< 1e-05
G13A G40C G60A U65A	< 1e-05
A6U G9C A33C C50G A52C U56C C68A C71U	< 1e-05
C11A G51C G63U	< 1e-05
C8G A12G U54G A64C U65A C71G	< 1e-05
A14G A42G A52U	9.16e-05 ± 3.3e-05

Variants of: B1
Assay: self-cleavage kobs at 10000 uM GlcN6P; higher = faster cleavage; RNA array
Conditions: with glucosamine-6-phosphate
Outline: as §1

Variant	self-cleavage kobs at 10000 uM GlcN6P [s⁻¹]
C58G G62U	< 1e-05
A12G U57C C58G	2.94e-05 ± 1.4e-05
C8G C34A G66C	< 1e-05
G37U G40A G63A	< 1e-05
C11A U55A U56C	2.5e-05 ± 1.1e-05
C16U C34U G44A	< 1e-05
A12G C34A U45A	< 1e-05
C10U G35U A42G U56G	< 1e-05
G35C C50A G51A	< 1e-05
A15G A52G C71U	0.00137 ± 0.00021
A6C U31G G40C	< 1e-05
A1U G41U C70G C71U	0.000232 ± 6e-05
C50U C61U C67U	< 1e-05
A15G G44U C58U C67A	2.9e-05 ± 1.2e-05
A53G C58U C70U	0.000123 ± 2.7e-05
C8G C10U U54G	< 1e-05
C34A G63U C70A	< 1e-05
A52U A53C G62C	< 1e-05
G32A G37C G40A	< 1e-05
C11G G60C G63C	< 1e-05
C34U G38C G60C	< 1e-05
C10G A14G	3.42e-05 ± 7.2e-06
G44A C58A C67U	0.000308 ± 6.5e-05
C8U C61U C68G	0.000133 ± 4.3e-05
A42U G66A	0.000114 ± 2.5e-05
A6U G9C A33C C50G A52C U56C C68A C71U	< 1e-05
G29U A48G G51A	< 1e-05
